Experiments:
cancer cells = details: known from literature; cited from earlier work
SIRPγ = SIRPγ (Homo sapiens, UniProt Q9P1W8); details: Patent References 1 to 3; cited from earlier work
[1] = tested on: all 10 types of SIRPα variant; details: Patent References 1 to 3; cited from earlier work
SIRPβ1 = SIRPβ1 (Homo sapiens, UniProt O00241); details: Patent References 1 to 3; cited from earlier work
SIRPα V1 = SIRPα V1 (Homo sapiens, UniProt P78324); details: Patent References 1 to 3; cited from earlier work
4T1-hmHER2 cells = test: Antitumor study (1); format: in vivo, BALB/c mice; details: single administration, 10 mg/kg, Day 21
Method: Individuals having a tumor volume of beyond 3000 mm^3 were humanly killed from an ethical point of view for animal experiments.
The antibody-drug conjugate (1) (Drug-to-Antibody Ratio: 7.6) was diluted with PBS, and a dose of 10 mL/kg was intravenously administered to the tail vein.
To mouse breast cancer cell line 4T1 (CRL-2539) purchased from the American Type Culture Collection, a human/mouse chimera HER2 gene was transfected by use of a lentivirus vector to prepare 4T1-hmHER2 cells, which were put in use. The cells express a human/mouse chimera HER2 protein on the cell membrane. Then, 4T1-hmHER2 cells were suspended in PBS and 1.0×10^6 cells were subcutaneously inoculated into the right axilla of each of the BALB/c mice (Day 0). Four days later, the mice were randomly grouped (Day 4). The antibody-drug conjugate (1) was intravenously administered at a dose of 10 mg/kg on Day 4 and 11 (two times in total) to the tail vein. […] P value was expressed to four decimal places and the results satisfying P<0.05 (two-sided test) were determined as being significant.

CT26.WT-hTROP2 cells = test: Antitumor study (2); format: in vivo, BALB/c mice; details: single administration, 10 mg/kg, Day 18
Method: Mouse: Female 6-week-old BALB/c mice (BALB/c AnNCrlCrlj) (bred by CHARLES RIVER LABORATORIES JAPAN, INC.) were subjected to experiments. Measurement and calculation formula: the long diameter and short diameter of tumors were measured twice a week with an electronic digital caliper (CD15-CX, manufactured by Mitutoyo Corporation), and the tumor volumes (mm^3) were calculated. The calculation formula is shown below: […] Individuals having a tumor volume of beyond 3000 mm^3 were humanely killed from an ethical point of view for animal experiments. […] An anti-SIRPα antibody (clone: 5C12) was diluted with PBS, and a dose of 10 mL/kg was intraperitoneally administered. […] The cells express a human TROP2 protein on the cell membrane. CT26.WT-hTROP2 cells were suspended in saline, and 2.0×10^6 cells were subcutaneously inoculated into the right axilla of each of the BALB/c mice (Day 0). Seven days later, the mice were randomly grouped (Day 7). […] The anti-SIRPα antibody (clone: 5C12) was intraperitoneally administered at a dose of 10 mg/kg on Day 8, 11 and 13 (three times in total). […] Measurement of the tumor volume was continued until Day 18. […] P value was expressed to four decimal places and the results satisfying P<0.05 (two-sided test) were determined as being significant.

CT26.WT-HER3 cells = test: Antitumor study (3); format: in vivo, BALB/c mice; details: single administration, 10 mg/kg, Day 18
Method: Mouse: Female 6-week-old BALB/c mice (BALB/c AnNCrlCrlj) (bred by CHARLES RIVER LABORATORIES JAPAN, INC.) were subjected to experiments.
Measurement and calculation formula: the long diameter and short diameter of tumors were measured twice a week with an electronic digital caliper (CD15-CX, manufactured by Mitutoyo Corporation), and the tumor volumes (mm^3) were calculated. The calculation formula is shown below:
Tumor volume (mm^3)=0.5×Long diameter (mm)×[Short diameter (mm)]^2
Individuals having a tumor volume of beyond 3000 mm^3 were humanely killed from an ethical point of view for animal experiments.
The antibody-drug conjugate (3) (Drug-to-Antibody Ratio: 8) and an anti-SIRPα antibody (clone: 5C12) were diluted with PBS, and used for administration.
To mouse colorectal cancer cell line CT26.WT (CRL2638) purchased from the American Type Culture Collection, a human HER3 gene was transfected by use of a lentivirus vector to prepare CT26.WT-HER3 cells, which were put in use. The cells express a human HER3 protein on the cell membrane. CT26.WT-HER3 cells were suspended in saline, and 2.0×10^6 cells were subcutaneously inoculated into the right axilla of each of the BALB/c mice (Day 0). Seven days later, the mice were randomly grouped (Day 7). […] P value was expressed to four decimal places and the results satisfying P<0.05 (two-sided test) were determined as being significant.

mouse SIRPα antigen = target: T1, mouse SIRPα antigen (Mus musculus, UniProt P97797); test: Binding affinity to mouse SIRPα antigen
T1 sequence (P97797 32-513): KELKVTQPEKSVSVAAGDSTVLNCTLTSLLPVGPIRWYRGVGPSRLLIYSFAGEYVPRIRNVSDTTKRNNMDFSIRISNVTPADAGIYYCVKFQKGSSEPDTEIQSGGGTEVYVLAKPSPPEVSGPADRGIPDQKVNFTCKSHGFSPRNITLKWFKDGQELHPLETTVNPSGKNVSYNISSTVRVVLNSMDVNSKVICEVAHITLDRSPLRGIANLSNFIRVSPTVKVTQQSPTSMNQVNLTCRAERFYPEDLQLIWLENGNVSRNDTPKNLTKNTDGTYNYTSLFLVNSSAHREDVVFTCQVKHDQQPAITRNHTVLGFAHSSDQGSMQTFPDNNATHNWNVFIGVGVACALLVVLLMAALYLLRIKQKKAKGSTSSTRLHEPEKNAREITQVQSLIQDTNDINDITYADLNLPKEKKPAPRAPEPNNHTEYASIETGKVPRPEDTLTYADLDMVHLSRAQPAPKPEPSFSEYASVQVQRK
Method: The lymph node cells and mouse myeloma SP2/0-ag14 cells (ATCC: CRL-1581) were fused in accordance with a polyethylene glycol method. The fused cells were suspended in HAT selective medium and cultured in accordance with the limiting dilution method. The hybridoma colonies that emerged were collected. In this manner, monoclonal hybridomas were prepared. The collected hybridoma colonies were cultured. Using the resultant hybridoma culture supernatant, an antibody-producing hybridoma was screened based on binding activity to a mouse SIRPα protein as an index. In this manner, clone: 5C12 was screened.

SIRPγ, sequence (Q9P1W8 29-387): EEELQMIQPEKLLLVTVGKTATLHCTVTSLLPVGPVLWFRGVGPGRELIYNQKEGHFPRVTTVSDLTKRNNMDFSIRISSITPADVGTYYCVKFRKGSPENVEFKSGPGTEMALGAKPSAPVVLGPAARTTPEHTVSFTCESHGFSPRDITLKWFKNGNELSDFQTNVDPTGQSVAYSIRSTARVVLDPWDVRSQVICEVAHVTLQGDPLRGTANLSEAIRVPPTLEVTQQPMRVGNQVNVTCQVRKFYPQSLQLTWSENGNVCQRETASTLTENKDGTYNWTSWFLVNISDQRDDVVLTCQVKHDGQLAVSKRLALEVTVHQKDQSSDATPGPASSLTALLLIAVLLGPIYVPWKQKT
SIRPβ1, sequence (O00241 30-398): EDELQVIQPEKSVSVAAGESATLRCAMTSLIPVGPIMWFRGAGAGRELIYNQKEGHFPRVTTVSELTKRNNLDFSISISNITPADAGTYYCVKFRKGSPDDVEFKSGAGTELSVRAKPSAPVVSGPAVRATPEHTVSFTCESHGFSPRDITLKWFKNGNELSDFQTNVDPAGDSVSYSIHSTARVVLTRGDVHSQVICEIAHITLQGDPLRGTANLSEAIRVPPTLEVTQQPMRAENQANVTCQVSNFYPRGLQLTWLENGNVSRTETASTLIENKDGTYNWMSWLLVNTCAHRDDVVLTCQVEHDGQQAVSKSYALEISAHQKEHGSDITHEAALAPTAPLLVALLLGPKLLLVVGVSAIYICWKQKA

**Q.** Which ICD induction (cancer cells) does the source give for `O=P1(N(CCCl)CCCl)NCCCO1` (stereo not shown) [Cyclophosphamide] here?
**A.** inducing ICD

**Q.** With `CC(=O)O[C@@]12CO[C@@H]1C[C@H](O)[C@@]1(C)C(=O)[C@H](O)C3=C(C)[C@@H](OC(=O)[C@H](O)[C@@H](NC(=O)OC(C)(C)C)c4ccccc4)C[C@@](O)([C@@H](OC(=O)c4ccccc4)[C@H]21)C3(C)C` [Docetaxel] as the molecule, how does the ICD induction (cancer cells) read?
**A.** not confirmed to induce ICD

**Q.** Which ICD induction (cancer cells) does the source give for `CO[C@@]12[C@H](COC(N)=O)C3=C(C(=O)C(C)=C(N)C3=O)N1C[C@@H]1N[C@@H]12` [Mitomycin C] here?
**A.** not confirmed to induce ICD

**Q.** With `O=C1[O][Pt]2([NH][C@@H]3CCCC[C@H]3[NH]2)[O]C1=O` [Oxaliplatin] as the molecule, how does the ICD induction (cancer cells) read?
**A.** inducing ICD

**Q.** What does the source list for “ADU-1805: anti-SIRPα IgG2 antibody of WO 2018/190719, SEQ ID NO: 28 and 29”?
**A.** binding to SIRPγ (SIRPγ): binds; binding to all 10 types of SIRPα variant [1]: binds

**Q.** Which “binding to SIRPβ1” value (SIRPβ1) does the source give for “KWAR23: anti-SIRPα antibody of WO 2018/026600, SEQ ID NO: 26 and 27” here?
**A.** binds

**Q.** And the “binding to SIRPγ” value (SIRPγ)?
**A.** binds

**Q.** What about the “binding to all 10 types of SIRPα variant” value [1] of the same molecule?
**A.** binds

**Q.** Which “binding to SIRPα V1” value (SIRPα V1) does the source give for “OSE-172: anti-SIRPα IgG4Pro antibody of WO 2017/178653, SEQ ID NO: 24 and 25” here?
**A.** binds

**Q.** And the “binding to SIRPβ1” value (SIRPβ1)?
**A.** binds

B1: 5C12: rat-derived anti-mouse SIRPα surrogate antibody, heavy and light chain SEQ ID NOs: 30 and 31 (antibody, listed as Mus musculus)
heavy: MKHLWFFLLLVAAPRWVLSEVQLVESGGGLVQPGGSLKLSCAASGFTFSNYDMAWVRQAPTKGLEWVASISTRGGSSYYRDSVKGRFTVSRDNAKSTLYLQMDSLRSEDTATYYCARHPGDYFDYWGQGVMVTVSSAKTTPPSVYPLAPGSAAQTNSMVTLGCLVKGYFPEPVTVTWNSGSLSSGVHTFPAVLQSDLYTLSSSVTVPSSTWPSETVTCNVAHPASSTKVDKKIVPRDCGCKPCICTVPEVSSVFIFPPKPKDVLTITLTPKVTCVVVAISKDDPEVQFSWFVDDVEVHTAQTQPREEQFNSTFRSVSELPIMHQDWLNGKEFKCRVNSAAFPAPIEKTISKTKGRPKAPQVYTIPPPKEQMAKDKVSLTCMITDFFPEDITVEWQWNGQPAENYKNTQPIMDTDGSYFVYSKLNVQKSNWEAGNTFTCSVLHEGLHNHHTEKSLSHSPGK
light: MVLQTQVFISLLLWISGAYGDTVLTQSPALAVSPGERVTISCRASESVSTLIHWYQQKPGQQPKLLIYLTSHLESGVPARFSGSGSGTDFTLTIDPVEADDTATYYCQQSWTHPWTFGGGTKLELKRADAAPTVSIFPPSSEQLTSGGASVVCFLNNFYPKDINVKWKIDGSERQNGVLNSWTDQDSKDSTYSMSSTLTLTKDEYERHNSYTCEATHKTSTSPIVKSFNRNEC
**Q.** For B1, which “antitumor effect (tumor volume) compared to the control group” value (4T1-hmHER2 cells) is on record?
**A.** significantly stronger antitumor effect

**Q.** What about the “antitumor effect (tumor volume) compared to the control group” value (CT26.WT-hTROP2 cells) of the same molecule?
**A.** partial antitumor effect

**Q.** What about the “antitumor effect (tumor volume) compared to the control group” value (CT26.WT-HER3 cells) of the same molecule?
**A.** no therapeutic effect

**Q.** What about the “binding affinity to mouse SIRPα antigen compared with that of hD13_H1L3 to a human SIRPα antigen” value (mouse SIRPα antigen) of the same molecule?
**A.** at the same level

**Q.** And the “binding affinity to the mouse SIRPα antigen” value (mouse SIRPα antigen)?
**A.** high binding affinity

Reference: patent US20230414778A1, “COMBINATION OF ANTIBODY-DRUG CONJUGATE WITH ANTI-SIRPalpha ANTIBODY” (DAIICHI SANKYO COMPANY, LIMITED, priority 2020, published 2023)
